Settings in all cases: both partners purified
Test [1] addresses T1, HEV-P, wild-type HEV-CA P domain protein, ORF2(455-601), genotype 3, 2712 strain (hepatitis E virus genotype 3, strain …, UniProt Q9YLQ9).
T1 construct: source: Freestyle 293-F, transient transfection (PEI), purified from culture supernatant (Ni Sepharose Excel)
The experiment in a line: ELISA; plates coated overnight with 125 ng per well of purified protein; serial dilutions of monoclonal antibodies in PBS, 2 hours; HRP anti-human IgG. A general note: ELISA stands for enzyme-linked immunosorbent assay.

Test [2] has as its target T2, genotype 1d HEV-CA protein (1d Morocco) (Hepatitis E virus genotype 1d, Morocco, …, UniProt Q9W7W9, strain).
T2 construct: hepatitis E virus capsid protein (ORF2), genotype 1d, strain Morocco; the 3-2712 HEV-CA construct of the same list is ORF2 126-601; Igk leader at the N terminus of the construct; also called genotype 1 HEV-CA; source: Freestyle 293-F, transient transfection (PEI), purified from culture supernatant (Ni Sepharose Excel)
Put plainly: SPR; Biacore 2000; purified IgG (10 μg/ml) captured on Protein G sensor chip; capsid proteins injected at 5 or 10 to 0.312 nM; HBS-EP (10 mM Hepes pH 7.2, 150 mM NaCl, 3 mM EDTA, 0.005% Tween 20); 22°C; Langmuir model, global analysis; apparent affinity. For orientation: In SPR one partner is held on a chip, and binding of the other changes the refractive index at the surface.

Test [3] has as its target T3, genotype 3a HEV-CA protein (3a Meng) (Hepatitis E virus genotype 3a, swine …, UniProt Q6J8F7, strain).
T3 construct: also called genotype 3 HEV-CA; source: Freestyle 293-F, transient transfection (PEI), purified from culture supernatant (Ni Sepharose Excel)
The test is described as above.

In test [4] the target is T4, HEV-C1 capsid protein (Rocahepevirus, rat hepatitis E virus) (Rocahepevirus (rat hepatitis E virus …, UniProt E0XL23, strain)).
T4 construct: capsid protein (ORF2) of Rocahepevirus HEV-C1 (rat hepatitis E virus); Igk leader at the N terminus of the construct; also called HEV-C1 protein; Rocahepevirus CA; source: Freestyle 293-F, transient transfection (PEI), purified from culture supernatant (Ni Sepharose Excel)
The description is as above.

T1 sequence (Q9YLQ9 455-601): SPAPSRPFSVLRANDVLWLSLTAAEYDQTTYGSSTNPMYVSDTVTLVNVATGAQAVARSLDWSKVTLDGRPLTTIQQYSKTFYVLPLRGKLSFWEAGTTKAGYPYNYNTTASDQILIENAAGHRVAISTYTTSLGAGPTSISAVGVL

B1: Es4.431 IgG antibody (antibody, V domains shown)
VH: EVQLLESGGGLVQPGGSLRLSCTASGFTFDTHVMSWVRQGPGKGLEWVSSISAASGTYYAGSVKGRFTISRDNSKNTLFLHMNSLRVEDTGVYYCANVVHRCTTNTCFRGADNWGQGTLVTVSS
VL: PSSLSASVGDRVTITCRASQSVDTYLNWYQQKPGETPKLLIYAASTLQSGVPSRFSGSGSGTTFTLTISSLQPEDFATYYCQQSYTTLMYTFGQGTKLEIK
notes: source: Freestyle 293-F, transient cotransfection, purified (Protein G Sepharose 4 Fast Flow)
Consider B1, for which the binding result in test [1] is “binds”.

B2: Es1.327 IgG antibody (antibody, V domains shown)
VH: QVQLVQSGGEVKKPGASVRVSCQTSGYSFTHYSITWVRQAPGQGLEWMGWITTYNGKTSYAQKFQDRVTMTADTSSRTAYVELRSLRSDDTAVYYCVRVWTGYGTNRGDYWGQGTLVTVSS
VL: PSSLYASVGDRVTITCRASQSINTFLNWYQQKPGNAPKLLIHAASTLESGVPSRFSGSGSGTDFTLTISSLQPEDFATYYCQQSDNNFALTFGGGTKVEIR
notes: as for B1
As to B2, the binding result in test [1] was “binds”.

B3: Es5.127 IgG antibody (antibody, V domains shown)
VH: EVQLVQSGAEVKKPGESLKISCKGSGYRSGYSFSSYWIGWVRQRPGKGLEWMGIIQPGDSDTTYSPSFQGQVTISADKSINTAYLQWSSLKASDTAIYYCARVRGSLKVPAAVPFDPWGQGTLVTVSS
VL: QSVLTQPPSVSAAPGQKVTISCSGSSSNIGNNYVSWYQQFPGIAPKLLIYDNNKRPSGIPDRFSGSKSGTSATLGITGLQTGDEADYYCGTWDSSLSDVVFGGGTKLTVL
notes: as for B1
Take B3: the binding result in test [2] is listed as “binds”. In addition, the results for the Kd in test [3] and in test [4] were 0.41 nM and 1.6 nM, respectively.

The record behind these values is paper PMC12057666 (Science Advances, 2025).
